{
  "source": "IntAct's records for PubMed 29039417",
  "parents": {"B1": {"name": "BBSome complex member BBS5 (Homo sapiens), Q8N3I7 (parent)", "chain": "MSVLDALWEDRDVRFDLSAQQMKTRPGEVLIDCLDSIEDTKGNNGDRGRLLVTNLRILWHSLALSRVNVSVGYNCILNITTRTANSKLRGQTEALYILTKCNSTRFEFIFTNLVPGSPRLFTSVMAVHRAYETSKMYRDFKLRSALIQNKQLRLLPQEHVYDKINGVWNLSSDQGNLGTFFITNVRIVWHANMNDSFNVSIPYLQIRSIKIRDSKFGLALVIESSQQSGGYVLGFKIDPVEKLQESVKEINSLHKVYSASPIFGVDYEMEEKPQPLEALTVEQIQDDVEIDSDGHTDAFVAYFADGNKQQDREPVFSEELGLAIEKLKDGFTLQGLWEVMS", "partner": "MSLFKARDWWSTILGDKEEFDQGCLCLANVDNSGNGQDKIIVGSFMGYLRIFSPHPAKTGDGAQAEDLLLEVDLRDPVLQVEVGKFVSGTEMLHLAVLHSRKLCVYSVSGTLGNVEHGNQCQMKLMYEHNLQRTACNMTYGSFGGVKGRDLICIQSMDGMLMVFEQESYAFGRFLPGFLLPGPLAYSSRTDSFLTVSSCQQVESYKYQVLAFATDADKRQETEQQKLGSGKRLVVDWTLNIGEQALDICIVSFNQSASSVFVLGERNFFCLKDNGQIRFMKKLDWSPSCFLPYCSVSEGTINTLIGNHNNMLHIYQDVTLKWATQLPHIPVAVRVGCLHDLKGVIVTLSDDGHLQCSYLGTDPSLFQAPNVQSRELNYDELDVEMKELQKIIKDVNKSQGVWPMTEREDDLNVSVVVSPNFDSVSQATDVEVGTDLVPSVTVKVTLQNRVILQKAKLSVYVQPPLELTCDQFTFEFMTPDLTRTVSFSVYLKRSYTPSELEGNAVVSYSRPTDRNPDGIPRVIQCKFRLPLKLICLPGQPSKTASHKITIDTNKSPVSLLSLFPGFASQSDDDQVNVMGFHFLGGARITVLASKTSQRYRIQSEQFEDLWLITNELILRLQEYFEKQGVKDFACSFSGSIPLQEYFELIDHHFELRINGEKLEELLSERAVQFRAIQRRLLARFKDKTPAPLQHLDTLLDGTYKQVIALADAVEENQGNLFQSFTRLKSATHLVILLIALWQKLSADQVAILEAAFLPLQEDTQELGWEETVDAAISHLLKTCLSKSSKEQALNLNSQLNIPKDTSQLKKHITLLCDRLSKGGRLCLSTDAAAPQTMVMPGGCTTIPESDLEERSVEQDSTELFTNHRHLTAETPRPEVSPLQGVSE"}},
  "data": [
    {"variants_of": "B1", "settings": "with pthb1_human BBS9, Q3SYG4", "values": [
      {"variant": "MSVLDALWEDRDVRFDLSAQQMKTRPGEVLIDCLDSIEDTKGNNGDRGRLLVTNLRILWHSLALSRVNVSVGYNCILNITTRTANSKLRGQTEALYILTKCNSTRFEFIFTNLVPGSPRLFTSVMAVHRAYETSKMYRDFKLRSALIQNKQLRLLPQEHVYDKINGVWNLSSDQGNLGTFFITNVRIVWHANMNDSFNVSIPYLQIRSIKIRDSKFGLALVIESSQQSGGYVLGFKIDPVEKLQESVKEINSLHKVYSASPIFGVDYEMEEKPQPLEELTVEQIQDDVEIDSDGHTDAFVAYFADGNKQQDREPVFSEELGLAIEKLKDGFTLQGLWEVMS", "note": "[A278E]", "effect of a mutation on the interaction": "with no effect"},
      {"variant": "MSVLDALWEDRDVRFDLSAQQMKTRPGEVLIDCLDSIEDTKGNNGDRGRLLVTNLRILWHSLALSRVNVSVGYNCILNITTRTANSKLRGQTEALYILTKCNSTRFEFIFTNLVPGSPRLFTSVMAVHRAYETSKMYRDFKLRSALIQNKQLRLLPQEHVYDKINGVWNLSSDQGNLGTFFITNVRIVWHANMNDSFNVSIPYLQIRSIKIRDSKFGLALVIESSQQSGGYVLGFKIDPVEKLQESVKEINSLHKVYSASPIFGVDYEMEEKPQPLEKLTVEQIQDDVEIDSDGHTDAFVAYFADGNKQQDREPVFSEELGLAIEKLKDGFTLQGLWEVMS", "note": "[A278K]", "effect of a mutation on the interaction": "with no effect"},
      {"variant": "MSVLDALWEDRDVRFDLSAQQMKTRPGEVLIDCLDSIEDTKGNNGDRGRLLVTNLRILWHSLALSRVNVSVGYNCILNITTRTANSKLRGQTEALYILTKCNSTRFEFIFTNLVPGSPRLFTSVMAVHRAYETSKMYRDFKLRSALIQNKQLRLLPQEHVYDKINGVWNLSSDQGNLGTFFITNVRIVWHANMNDSFNVSIPYLQIRSIKIRDSKFGLALVIESSQQSGGYVLGFKIDPVEKLQESVKEINSLHKVYSASPIFGVDYEMEEKPQKLEALTVEQIQDDVEIDSDGHTDAFVAYFADGNKQQDREPVFSEELGLAIEKLKDGFTLQGLWEVMS", "note": "[P275K]", "effect of a mutation on the interaction": "with no effect"},
      {"variant": "MSVLDALWEDRDVRFDLSAQQMKTRPGEVLIDCLDSIEDTKGNNGDRGRLLVTNLRILWHSLALSRVNVSVGYNCILNITTRTANSKLRGQTEALYILTKCNSTRFEFIFTNLVPGSPRLFTSVMAVHRAYETSKMYRDFKLRSALIQNKQLRLLPQEHVYDKINGVWNLSSDQGNLGTFFITNVRIVWHANMNDSFNVSIPYLQIRSIKIRDSKFGLALVIESSQQSGGYVLGFKIDPVEKLQESVKEINSLHKVYSASPIFGVDYEMEEKPQELEALTVEQIQDDVEIDSDGHTDAFVAYFADGNKQQDREPVFSEELGLAIEKLKDGFTLQGLWEVMS", "note": "[P275E]", "effect of a mutation on the interaction": "with no effect"},
      {"variant": "MSVLDALWEDRDVRFDLSAQQMKTRPGEVLIDCLDSIEDTKGNNGDRGRLLVTNLRILWHSLALSRVNVSVGYNCILNITTRTANSKLRGQTEALYILTKCNSTRFEFIFTNLVPGSPRLFTSVMAVHRAYETSKMYRDFKLRSALIQNKQLRLLPQEHVYDKINGVWNLSSDQGNLGTFFITNVRIVWHANMNDSFNVSIPYLQIRSIKIRDSKFGLALVIESSQQSGGYVLGFKIDPVEKLQESVKEINSLHKVYSASPIFGVDYEMEEKPQPLKALTVEQIQDDVEIDSDGHTDAFVAYFADGNKQQDREPVFSEELGLAIEKLKDGFTLQGLWEVMS", "note": "[E277K]", "effect of a mutation on the interaction": "with no effect"},
      {"variant": "MSVLDALWEDRDVRFDLSAQQMKTRPGEVLIDCLDSIEDTKGNNGDRGRLLVTNLRILWHSLALSRVNVSVGYNCILNITTRTANSKLRGQTEALYILTKCNSTRFEFIFTNLVPGSPRLFTSVMAVHRAYETSKMYRDFKLRSALIQNKQLRLLPQEHVYDKINGVWNLSSDQGNLGTFFITNVRIVWHANMNDSFNVSIPYLQIRSIKIRDSKFGLALVIESSQQSGGYVLGFKIDPVEKLQESVKEINSLHKVYSASPIFGVDYEMEEKPQPLAALTVEQIQDDVEIDSDGHTDAFVAYFADGNKQQDREPVFSEELGLAIEKLKDGFTLQGLWEVMS", "note": "[E277A]", "effect of a mutation on the interaction": "with no effect"},
      {"variant": "MSVLDALWEDRDVRFDLSAQQMKTRPGEVLIDCLDSIEDTKGNNGDRGRLLVTNLRILWHSLALSRVNVSVGYNCILNITTRTANSKLRGQTEALYILTKCNSTRFEFIFTNLVPGSPRLFTSVMAVHRAYETSKMYRDFKLRSALIQNKQLRLLPQEHVYDKINGVWNLSSDQGNLGTFFITNVRIVWHANMNDSFNVSIPYLQIRSIKIRDSKFGLALVIESSQQSGGYVLGFKIDPVEKLQESVKEINSLHKVYSASPIFGVDYEMEEKPQPAEALTVEQIQDDVEIDSDGHTDAFVAYFADGNKQQDREPVFSEELGLAIEKLKDGFTLQGLWEVMS", "note": "[L276A]", "effect of a mutation on the interaction": "with no effect"},
      {"variant": "MSVLDALWEDRDVRFDLSAQQMKTRPGEVLIDCLDSIEDTKGNNGDRGRLLVTNLRILWHSLALSRVNVSVGYNCILNITTRTANSKLRGQTEALYILTKCNSTRFEFIFTNLVPGSPRLFTSVMAVHRAYETSKMYRDFKLRSALIQNKQLRLLPQEHVYDKINGVWNLSSDQGNLGTFFITNVRIVWHANMNDSFNVSIPYLQIRSIKIRDSKFGLALVIESSQQSGGYVLGFKIDPVEKLQESVKEINSLHKVYSASPIFGVDYEMEEKPQPKEALTVEQIQDDVEIDSDGHTDAFVAYFADGNKQQDREPVFSEELGLAIEKLKDGFTLQGLWEVMS", "note": "[L276K]", "effect of a mutation on the interaction": "with no effect"},
      {"variant": "MSVLDALWEDRDVRFDLSAQQMKTRPGEVLIDCLDSIEDTKGNNGDRGRLLVTNLRILWHSLALSRVNVSVGYNCILNITTRTANSKLRGQTEALYILTKCNSTRFEFIFTNLVPGSPRLFTSVMAVHRAYETSKMYRDFKLRSALIQNKQLRLLPQEHVYDKINGVWNLSSDQGNLGTFFITNVRIVWHANMNDSFNVSIPYLQIRSIKIRDSKFGLALVIESSQQSGGYVLGFKIDPVEKLQESVKEINSLHKVYSASPIFGVDYEMEEKPQPEEALTVEQIQDDVEIDSDGHTDAFVAYFADGNKQQDREPVFSEELGLAIEKLKDGFTLQGLWEVMS", "note": "[L276E]", "effect of a mutation on the interaction": "with no effect"}
    ]}
  ]
}
